Results on two substances are retold here after patent US20050058645A1.

Experiment [1] addresses T1, FLAG-tagged IL-4Rα-gp130 chimeric receptor.
T1 sequence: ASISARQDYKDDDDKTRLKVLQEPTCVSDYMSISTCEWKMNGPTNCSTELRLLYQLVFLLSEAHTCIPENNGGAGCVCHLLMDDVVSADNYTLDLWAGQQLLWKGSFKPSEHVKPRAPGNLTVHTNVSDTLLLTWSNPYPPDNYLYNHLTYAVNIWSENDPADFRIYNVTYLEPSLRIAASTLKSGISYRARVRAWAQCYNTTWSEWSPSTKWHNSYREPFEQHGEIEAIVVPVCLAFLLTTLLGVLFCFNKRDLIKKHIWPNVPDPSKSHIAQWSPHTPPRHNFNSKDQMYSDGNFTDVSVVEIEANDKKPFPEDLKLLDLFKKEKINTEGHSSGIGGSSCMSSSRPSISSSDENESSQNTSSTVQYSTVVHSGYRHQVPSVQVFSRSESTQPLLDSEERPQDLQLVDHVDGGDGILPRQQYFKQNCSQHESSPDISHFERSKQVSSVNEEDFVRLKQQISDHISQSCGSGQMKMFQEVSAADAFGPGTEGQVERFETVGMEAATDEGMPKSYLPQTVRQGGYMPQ
Put plainly: cell-based or functional assay.

Experiment [2] concerns the target FLAG-tagged IL-13Rα1-gp130 chimeric receptor (human). Put plainly: cell-based or functional assay.

IL-4 (species not stated) (ligand), sequence (P05112 25-153): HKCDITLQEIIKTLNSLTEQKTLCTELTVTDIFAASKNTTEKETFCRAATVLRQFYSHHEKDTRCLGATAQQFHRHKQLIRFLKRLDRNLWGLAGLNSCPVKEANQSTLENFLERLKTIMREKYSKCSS

In experiment [1], IL-4 (species not stated) (ligand) came in with a 50% of maximal activity, STAT-3 luciferase reporter, lines 3.1.2 and 3.2.4 of 2 to 4 ng/mL.

In the case of IL-13 (species not stated) (ligand), in experiment [2], the 50% of maximal activity, STAT-3 luciferase reporter, lines 3.1.2 and 3.2.4 is 100 to 200 pg/mL.
